Read-outs that look alike come from different tables or passages of the source. Marks after values point to notes of the source that are not given here.
Key:
[1] = target: T1, human CCK2R (A431-CCK2R cells) (Homo sapiens, UniProt P32239); set-up: method as in PMID 28462989; settings: reference peptide, whole A431-CCK2R cells; cited from earlier work
T1 construct: expressed in transfected cells; host or cells: A431 human epidermoid carcinoma cells, stably transfected (plasmid pCR3.1); gift from Aloj
T1 sequence (P32239 1-447): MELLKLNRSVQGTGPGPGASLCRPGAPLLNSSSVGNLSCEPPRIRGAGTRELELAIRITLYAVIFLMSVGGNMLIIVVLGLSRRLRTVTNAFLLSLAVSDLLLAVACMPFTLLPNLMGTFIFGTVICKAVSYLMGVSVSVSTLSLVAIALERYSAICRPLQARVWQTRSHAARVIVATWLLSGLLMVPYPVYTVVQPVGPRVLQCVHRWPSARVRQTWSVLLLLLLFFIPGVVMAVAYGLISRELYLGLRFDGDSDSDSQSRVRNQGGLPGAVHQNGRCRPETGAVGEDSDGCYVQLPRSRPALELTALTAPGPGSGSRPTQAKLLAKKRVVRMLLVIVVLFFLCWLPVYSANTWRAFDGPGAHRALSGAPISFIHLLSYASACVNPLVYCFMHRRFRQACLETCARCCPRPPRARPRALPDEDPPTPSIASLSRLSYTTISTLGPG

[2] = assay type: physicochemical
Protocol: Aliquots (50 μL) of ^68Ga- and ^89Zr-labelled mono-, di-, and trimer (10 μM) were diluted in 450 μL PBS. After adding 500 μL octanol the mixture was vortexed with 1400 rpm (MS 3 basic vortexer, IKA, Staufen, Germany) for 15 min at RT followed by centrifugation for 2 min at 4500 rpm. Subsequently, 100 μL aliquots of the organic and the aqueous layer were collected and logD values were calculated using Excel (n = 3, six replicates) after gamma counter measurement.

[3] = system: A431-CCK2R/A431-mock tumour xenografted BALB/c nude mice; settings: mouse, in vivo
Protocol: All animal experiments were conducted in compliance with the Austrian and Dutch animal protection laws and with approval of the Austrian Ministry of Science (BMWF-66.011/000604-II/3b/2012 and BMWFW-66.011/0049-WF/II/3b/2014). In vivo stability studies were conducted in 5-week-old female BALB/c mice (in-house breed, ZVTA Innsbruck, Dr. Hermann Dietrich). The biodistribution studies were performed using female 8−10-week-old athymic BALB/c nude mice (Charles River Laboratories, Sulzfeld, Germany). Tumour xenografts were induced by subcutaneous injection of 2 × 10^6 A431-CCK2R cells (receptor positive) in the right and the same amount of A431-mock (receptor negative) in the left flank. Tumours were allowed to grow until they had reached a volume of 0.3–0.6 cm^3. To evaluate the biodistribution profile nude mice (n = 4) were intravenously injected with either 1-2 MBq ^68Ga- or 0.3 MBq ^89Zr-labelled mono-, di-, and trimer (0.1–0.2 nmol). The animals were sacrificed by cervical dislocation after 1 h as well as 2 h and 4 h in case of ^68Ga- and ^89Zr-labelled trimer, followed by the collection of organs and tissue. The collected samples were measured in the gamma counter and the results were calculated as percentage of injected dose per gram tissue (% ID/g).

**Q.** With “DOTA-MG11: reference peptide: DOTA-conjugated minigastrin analogue MG11 (EAYGWMDF; synthetic human minigastrin analogue)” as the molecule, how does the IC50 [1] read?
**A.** Its IC50 is 9.5 ± 0.5 nM.

**Q.** What does the source list for CSCC[C@H](NC(=O)[C@H](Cc1c[nH]c2ccccc12)NC(=O)CNC(=O)[C@H](Cc1ccc(O)cc1)NC(=O)[C@H](C)NC(=O)[C@@H](CCC(=O)O)NC(=O)CCSC1CC(=O)N(CCC(=O)NC2CCCN(O)C(=O)C=C(C)CCOC(=O)C(NC(=O)CCN3C(=O)CC(SCCC(=O)N[C@H](CCC(=O)O)C(=O)N[C@@H](C)C(=O)N[C@@H](Cc4ccc(O)cc4)C(=O)NCC(=O)N[C@@H](Cc4c[nH]c5ccccc45)C(=O)N[C@@H](CCSC)C(=O)N[C@@H](CC(=O)O)C(=O)N[C@@H](Cc4ccccc4)C(N)=O)C3=O)CCCN(O)C(=O)C=C(C)CCOC(=O)C(NC(=O)CCN3C(=O)CC(SCCC(=O)N[C@H](CCC(=O)O)C(=O)N[C@@H](C)C(=O)N[C@@H](Cc4ccc(O)cc4)C(=O)NCC(=O)N[C@@H](Cc4c[nH]c5ccccc45)C(=O)N[C@@H](CCSC)C(=O)N[C@@H](CC(=O)O)C(=O)N[C@@H](Cc4ccccc4)C(N)=O)C3=O)CCCN(O)C(=O)C=C(C)CCOC2=O)C1=O)C(=O)N[C@@H](CC(=O)O)C(=O)N[C@@H](Cc1ccccc1)C(N)=O (stereo partly shown) [^68Ga-labelled Trimer, metal not drawn]?
**A.** Distribution coefficient logD (pH 7.4) [2]: −2.20 ± 0.07; Biodistribution: A431-CCK2R tumour (receptor positive) ([3]; 1 h): 6.07 ± 1.56 % ID/g; Biodistribution: A431-mock tumour (receptor negative) ([3]; 1 h): 2.17 ± 0.70^e % ID/g; Biodistribution: Blood ([3]; 1 h): 3.70 ± 1.27 % ID/g; Biodistribution: Bone ([3]; 1 h): 2.03 ± 0.88 % ID/g; Biodistribution: Heart ([3]; 1 h): 1.60 ± 0.28^e % ID/g; Biodistribution: Intestine ([3]; 1 h): 1.15 ± 0.28^e % ID/g; Biodistribution: Kidneys ([3]; 1 h): 49.7 ± 10.1 % ID/g; Biodistribution: Liver ([3]; 1 h): 3.71 ± 0.75 % ID/g; Biodistribution: Lung ([3]; 1 h): 4.47 ± 1.50 % ID/g; Biodistribution: Muscle ([3]; 1 h): 0.75 ± 0.15 % ID/g; Biodistribution: Pancreas ([3]; 1 h): 1.37 ± 0.26^e % ID/g; Biodistribution: Spleen ([3]; 1 h): 2.15 ± 0.32^e % ID/g; Biodistribution: Stomach ([3]; 1 h): 3.17 ± 0.54 % ID/g; Biodistribution: A431-CCK2R tumour (receptor positive) ([3]; 2 h): 8.73 ± 2.65^e % ID/g; Biodistribution: A431-mock tumour (receptor negative) ([3]; 2 h): 3.18 ± 0.51 % ID/g; Biodistribution: Blood ([3]; 2 h): 2.53 ± 0.67 % ID/g; Biodistribution: Bone ([3]; 2 h): 2.52 ± 0.79 % ID/g; Biodistribution: Heart ([3]; 2 h): 2.18 ± 0.31 % ID/g; Biodistribution: Intestine ([3]; 2 h): 1.86 ± 0.33 % ID/g; Biodistribution: Kidneys ([3]; 2 h): 59.6 ± 4.3^f % ID/g; Biodistribution: Liver ([3]; 2 h): 4.09 ± 0.85 % ID/g; Biodistribution: Lung ([3]; 2 h): 5.78 ± 0.92 % ID/g; Biodistribution: Muscle ([3]; 2 h): 0.65 ± 0.14 % ID/g; Biodistribution: Pancreas ([3]; 2 h): 1.80 ± 0.31 % ID/g; Biodistribution: Spleen ([3]; 2 h): 2.89 ± 0.53 % ID/g; Biodistribution: Stomach ([3]; 2 h): 3.86 ± 1.36^f % ID/g; Biodistribution: A431-CCK2R tumour (receptor positive) ([3]; 4 h): 14.44 ± 3.40^f % ID/g; Biodistribution: A431-mock tumour (receptor negative) ([3]; 4 h): 2.16 ± 0.54 % ID/g; Biodistribution: Blood ([3]; 4 h): 1.76 ± 0.43 % ID/g; Biodistribution: Bone ([3]; 4 h): 2.26 ± 0.41 % ID/g; Biodistribution: Heart ([3]; 4 h): 1.51 ± 0.33^f % ID/g; Biodistribution: Intestine ([3]; 4 h): 2.48 ± 0.59 % ID/g; Biodistribution: Kidneys ([3]; 4 h): 172.1 ± 14.8 % ID/g; Biodistribution: Liver ([3]; 4 h): 6.01 ± 2.54 % ID/g; Biodistribution: Lung ([3]; 4 h): 3.75 ± 0.84^f % ID/g; Biodistribution: Muscle ([3]; 4 h): 1.01 ± 0.37 % ID/g; Biodistribution: Pancreas ([3]; 4 h): 3.10 ± 1.13 % ID/g; Biodistribution: Spleen ([3]; 4 h): 2.77 ± 0.78 % ID/g; Biodistribution: Stomach ([3]; 4 h): 13.6 ± 4.9 % ID/g

**Q.** Which results are given for CSCC[C@H](NC(=O)[C@H](Cc1c[nH]c2ccccc12)NC(=O)CNC(=O)[C@H](Cc1ccc(O)cc1)NC(=O)[C@H](C)NC(=O)[C@@H](CCC(=O)O)NC(=O)CCSC1CC(=O)N(CCC(=O)NC2CCCN(O)C(=O)C=C(C)CCOC(=O)C(NC(=O)CCN3C(=O)CC(SCCC(=O)N[C@H](CCC(=O)O)C(=O)N[C@@H](C)C(=O)N[C@@H](Cc4ccc(O)cc4)C(=O)NCC(=O)N[C@@H](Cc4c[nH]c5ccccc45)C(=O)N[C@@H](CCSC)C(=O)N[C@@H](CC(=O)O)C(=O)N[C@@H](Cc4ccccc4)C(N)=O)C3=O)CCCN(O)C(=O)C=C(C)CCOC(=O)C(NC(C)=O)CCCN(O)C(=O)C=C(C)CCOC2=O)C1=O)C(=O)N[C@@H](CC(=O)O)C(=O)N[C@@H](Cc1ccccc1)C(N)=O (stereo partly shown) [^89Zr-labelled Dimer, metal not drawn]?
**A.** Distribution coefficient logD (pH 7.4) [2]: −2.83 ± 0.02; Tumour-to-organ ratio (T/O): A431-mock [3]: 11.2 ± 2.3; Tumour-to-organ ratio (T/O): Blood [3]: 7.4 ± 2.3^c; Tumour-to-organ ratio (T/O): Bone [3]: 7.4 ± 1.2^c; Tumour-to-organ ratio (T/O): Heart [3]: 9.8 ± 4.8; Tumour-to-organ ratio (T/O): Intestine [3]: 12.5 ± 3.1; Tumour-to-organ ratio (T/O): Kidneys [3]: 0.15 ± 0.06; Tumour-to-organ ratio (T/O): Liver [3]: 10.3 ± 3.2^c; Tumour-to-organ ratio (T/O): Lung [3]: 7.6 ± 2.9^c; Tumour-to-organ ratio (T/O): Muscle [3]: 7.9 ± 5.3; Tumour-to-organ ratio (T/O): Pancreas [3]: 9.2 ± 3.1^c; Tumour-to-organ ratio (T/O): Spleen [3]: 10.5 ± 4.5; Tumour-to-organ ratio (T/O): Stomach [3]: 3.4 ± 1.1; Biodistribution: A431-CCK2R tumour (receptor positive) ([3]; 1 h): 7.69 ± 1.34^ac % ID/g; Biodistribution: A431-mock tumour (receptor negative) ([3]; 1 h): 0.86 ± 0.22 % ID/g; Biodistribution: Blood ([3]; 1 h): 1.17 ± 0.28 % ID/g; Biodistribution: Bone ([3]; 1 h): 1.36 ± 0.42 % ID/g; Biodistribution: Heart ([3]; 1 h): 1.01 ± 0.37 % ID/g; Biodistribution: Intestine ([3]; 1 h): 0.73 ± 0.25 % ID/g; Biodistribution: Kidneys ([3]; 1 h): 55.5 ± 10.3 % ID/g; Biodistribution: Liver ([3]; 1 h): 0.83 ± 0.20 % ID/g; Biodistribution: Lung ([3]; 1 h): 1.16 ± 0.28 % ID/g; Biodistribution: Muscle ([3]; 1 h): 1.51 ± 0.70 % ID/g; Biodistribution: Pancreas ([3]; 1 h): 0.95 ± 0.23^c % ID/g; Biodistribution: Spleen ([3]; 1 h): 0.99 ± 0.40 % ID/g; Biodistribution: Stomach ([3]; 1 h): 2.99 ± 1.13 % ID/g

From paper PMC5914118, “Exploiting the Concept of Multivalency with ^68Ga- and ^89Zr-Labelled Fusarinine C-Minigastrin Bioconjugates for Targeting CCK2R Expression” (Contrast Media & Molecular Imaging, 2018)
